This is an account of results in US20180155451A1 (published 2018).

Assay [1] deals with T1, FcγRIIa H (human, UniProt P12318 34-217).
T1 construct: extracellular domain; also called FcγRIIa type H; 2aH
T1 sequence (looked up): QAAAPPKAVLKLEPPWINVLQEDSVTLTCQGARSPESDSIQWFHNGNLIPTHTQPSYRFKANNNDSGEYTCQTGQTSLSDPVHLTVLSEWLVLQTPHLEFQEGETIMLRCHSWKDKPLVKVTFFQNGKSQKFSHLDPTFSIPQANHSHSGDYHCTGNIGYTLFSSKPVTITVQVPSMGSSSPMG
The assay is described as follows: SPR; He/Con_2aH divided by He/Con_2b (FcγRIIb). The method, then: The heterodimerized antibodies He Abs in which one of the H chains was introduced with an alteration were assayed for their binding activities to each activating FcγR and inhibitory FcγR according to the method described in Example 4. […] The activating FcγRs in FIGS. 26, 27, 28, and 29 are FcγRIa, FcγRIIa (R), FcγRIIa (H), and FcγRIIIa, respectively.
Analysis of interaction between objective antibody and the FcγR was carried out using Biacore T100 (GE Healthcare). HBS-EP+ (GE Healthcare) was used as the running buffer, and the measurement temperature was set to 25° C. Chips produced by immobilizing the antigen peptide by the amine coupling method to a Series S Sencor Chip CM5 (GE Healthcare), or alternatively, chips produced by allowing preliminarily biotinylated antigen peptides to interact with and immobilize onto a Series S Sensor Chip SA (certified) (GE Healthcare) were used. Antibodies of interest were captured onto an antigen peptide-immobilized chip, and allowed to interact to each FcγR diluted with running buffer. To regenerate and repeatedly use the chip, the antibodies captured on the chip were washed off by reacting 10 mM glycine-HCl, pH 1.5.

For assay [2], the target named is T1, FcγRIIa H. The assay is described as follows: SPR (Biacore), relative binding vs GpH7-A5/GpH7-B3/GpL16-k0. (In SPR one partner is held on a chip, and binding of the other changes the refractive index at the surface.)
Another assay concerns the target T2, FcγRIIb (human, UniProt P31994 43-217).
T2 construct: extracellular domain; also called 2b
T2 sequence (looked up): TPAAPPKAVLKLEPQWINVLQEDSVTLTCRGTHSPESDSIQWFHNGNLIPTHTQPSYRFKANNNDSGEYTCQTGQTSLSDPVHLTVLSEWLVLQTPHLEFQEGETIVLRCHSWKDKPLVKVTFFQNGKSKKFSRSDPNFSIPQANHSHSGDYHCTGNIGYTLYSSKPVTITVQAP
The assay is described as above.

Assay [3] addresses T3, FcγRIIb extracellular domain with C-terminal His tag (human, UniProt P31994 43-217).
T3 construct: extracellular domain; Expressed in FreeStyle293 cells; used as analyte in Biacore; also called FcgRIIb; 2b; not shown: C-terminal His tag
T3 sequence (looked up): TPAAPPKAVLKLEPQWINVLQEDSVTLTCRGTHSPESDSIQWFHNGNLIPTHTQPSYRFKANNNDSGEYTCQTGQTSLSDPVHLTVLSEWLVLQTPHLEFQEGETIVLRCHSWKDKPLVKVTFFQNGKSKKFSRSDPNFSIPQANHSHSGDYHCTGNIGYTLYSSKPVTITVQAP
The assay is described as follows: SPR (Biacore), antibody captured on antigen-peptide chip, FcgRIIb as analyte; binding relative to GpH7-B3/GpL16-k0 (HoCon Ab) = 100.

B1: GpH7-A5/GpH7-B3 variant S267_16H/GpL16-k0 (antibody, human IgG1, kappa)
heavy 1: not shown
heavy 2: not shown
light: DIVMTQSPLSLPVTPGEPASISCQASESLVHSNRNTYLHWYLQKPGQSPQLLIYKVSNRFSGVPDRFSGSGSGTDFTLKISRVEAEDVGVYYCSQNTHVPPTFGQGTKVEIERTVAAPSVFIFPPSDEQLKSGTASVVCLLNNFYPREAKVQWKVDNALQSGNSQESVTEQDSKDSTYSLSSTLTLSKADYEKHKVYACEVTHQGLSSPVTKSFNRGEC
notes: heterodimerized IgG1, mutation in one H chain only; also called He Ab
As to B1, the “He_2aH/2b (IIaH/IIb)” value in the assay with FcγRIIa H [1] came to 0.45 ratio. Besides, in the assay with FcγRIIa H [2], the He/Con_2aH is 29.8 % of control He Ab (=100). For the same molecule, the He/Con_2b with FcγRIIb is 65.9 % of control He Ab (=100).

B2: GpH7-B3 variant L328_03V/GpL16-k0 (Ho Ab) (antibody, human IgG1, kappa)
heavy: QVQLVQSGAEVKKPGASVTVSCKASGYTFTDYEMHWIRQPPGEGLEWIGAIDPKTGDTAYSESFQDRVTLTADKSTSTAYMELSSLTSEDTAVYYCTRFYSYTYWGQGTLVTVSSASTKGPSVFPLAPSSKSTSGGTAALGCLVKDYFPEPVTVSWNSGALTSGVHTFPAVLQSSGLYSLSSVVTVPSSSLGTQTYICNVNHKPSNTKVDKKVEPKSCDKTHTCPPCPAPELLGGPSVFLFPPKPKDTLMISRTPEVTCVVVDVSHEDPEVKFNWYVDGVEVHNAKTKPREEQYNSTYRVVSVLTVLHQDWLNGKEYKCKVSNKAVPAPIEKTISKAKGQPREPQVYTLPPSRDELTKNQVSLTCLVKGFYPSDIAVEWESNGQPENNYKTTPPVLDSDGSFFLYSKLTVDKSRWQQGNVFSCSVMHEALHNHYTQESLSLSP
light: DIVMTQSPLSLPVTPGEPASISCQASESLVHSNRNTYLHWYLQKPGQSPQLLIYKVSNRFSGVPDRFSGSGSGTDFTLKISRVEAEDVGVYYCSQNTHVPPTFGQGTKVEIERTVAAPSVFIFPPSDEQLKSGTASVVCLLNNFYPREAKVQWKVDNALQSGNSQESVTEQDSKDSTYSLSSTLTLSKADYEKHKVYACEVTHQGLSSPVTKSFNRGEC
notes: Substitution in both H chains; position in EU numbering; also called L328V homodimerized antibody
For the molecule B2, the Ho/Con_2b in assay [3] was 135 % of control.

B3: GpH7-A5/GpH7-B3 variant V266_20W/GpL16-k0 (antibody, human IgG1, kappa)
heavy 1: not shown
heavy 2: not shown
light: DIVMTQSPLSLPVTPGEPASISCQASESLVHSNRNTYLHWYLQKPGQSPQLLIYKVSNRFSGVPDRFSGSGSGTDFTLKISRVEAEDVGVYYCSQNTHVPPTFGQGTKVEIERTVAAPSVFIFPPSDEQLKSGTASVVCLLNNFYPREAKVQWKVDNALQSGNSQESVTEQDSKDSTYSLSSTLTLSKADYEKHKVYACEVTHQGLSSPVTKSFNRGEC
notes: as for B1
Take B3: the “He_2aH/2b (IIaH/IIb)” value with FcγRIIa H [1] was found to be 0.17 ratio. For the same molecule, in the assay with FcγRIIa H [2], the He/Con_2aH is 12 % of control He Ab (=100). For the same molecule, the He/Con_2b in the assay with FcγRIIb was 71.9 % of control He Ab (=100).

B4: GpH7-A5/GpH7-B3 variant S267_19Q/GpL16-k0 (antibody, human IgG1, kappa)
heavy 1: not shown
heavy 2: not shown
light: DIVMTQSPLSLPVTPGEPASISCQASESLVHSNRNTYLHWYLQKPGQSPQLLIYKVSNRFSGVPDRFSGSGSGTDFTLKISRVEAEDVGVYYCSQNTHVPPTFGQGTKVEIERTVAAPSVFIFPPSDEQLKSGTASVVCLLNNFYPREAKVQWKVDNALQSGNSQESVTEQDSKDSTYSLSSTLTLSKADYEKHKVYACEVTHQGLSSPVTKSFNRGEC
notes: as for B1
Regarding B4, the “He_2aH/2b (IIaH/IIb)” value with FcγRIIa H [1] is 0.28 ratio. For the same molecule, in the assay with FcγRIIa H [2], the He/Con_2aH was 61.3 % of control He Ab (=100). In the assay with FcγRIIb, the He/Con_2b was 218 % of control He Ab (=100).

B5: GpH7-B3 variant K334_19Q/GpL16-k0 (Ho Ab) (antibody, human IgG1, kappa)
heavy: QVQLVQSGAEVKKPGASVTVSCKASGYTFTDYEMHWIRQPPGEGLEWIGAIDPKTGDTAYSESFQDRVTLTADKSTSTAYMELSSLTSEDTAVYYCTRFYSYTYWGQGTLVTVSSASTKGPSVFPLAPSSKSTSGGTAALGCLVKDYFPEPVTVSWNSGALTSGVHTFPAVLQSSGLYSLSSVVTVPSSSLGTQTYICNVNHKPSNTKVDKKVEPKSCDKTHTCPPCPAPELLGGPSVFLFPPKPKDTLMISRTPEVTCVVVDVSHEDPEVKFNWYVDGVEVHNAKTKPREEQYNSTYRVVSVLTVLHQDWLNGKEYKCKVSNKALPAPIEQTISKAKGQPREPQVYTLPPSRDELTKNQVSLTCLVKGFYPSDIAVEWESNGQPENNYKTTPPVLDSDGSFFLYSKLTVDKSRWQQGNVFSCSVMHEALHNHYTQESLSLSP
light: DIVMTQSPLSLPVTPGEPASISCQASESLVHSNRNTYLHWYLQKPGQSPQLLIYKVSNRFSGVPDRFSGSGSGTDFTLKISRVEAEDVGVYYCSQNTHVPPTFGQGTKVEIERTVAAPSVFIFPPSDEQLKSGTASVVCLLNNFYPREAKVQWKVDNALQSGNSQESVTEQDSKDSTYSLSSTLTLSKADYEKHKVYACEVTHQGLSSPVTKSFNRGEC
notes: Substitution in both H chains; position in EU numbering; also called K334Q homodimerized antibody
Consider B5, for which the Ho/Con_2b in assay [3] is 117 % of control.

B6: GpH7-B3 variant K334_15Y/GpL16-k0 (Ho Ab) (antibody, human IgG1, kappa)
heavy: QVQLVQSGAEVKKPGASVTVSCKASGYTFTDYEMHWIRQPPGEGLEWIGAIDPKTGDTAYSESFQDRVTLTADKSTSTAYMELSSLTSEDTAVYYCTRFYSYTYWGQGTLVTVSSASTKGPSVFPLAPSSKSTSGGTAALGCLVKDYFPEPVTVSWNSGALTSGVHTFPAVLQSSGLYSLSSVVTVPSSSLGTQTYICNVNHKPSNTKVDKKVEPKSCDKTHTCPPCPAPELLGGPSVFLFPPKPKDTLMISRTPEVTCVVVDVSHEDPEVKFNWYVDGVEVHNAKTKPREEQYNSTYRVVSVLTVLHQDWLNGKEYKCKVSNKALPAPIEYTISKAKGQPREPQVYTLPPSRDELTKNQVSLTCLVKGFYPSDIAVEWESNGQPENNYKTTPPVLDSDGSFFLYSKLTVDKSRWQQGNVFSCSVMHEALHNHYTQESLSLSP
light: DIVMTQSPLSLPVTPGEPASISCQASESLVHSNRNTYLHWYLQKPGQSPQLLIYKVSNRFSGVPDRFSGSGSGTDFTLKISRVEAEDVGVYYCSQNTHVPPTFGQGTKVEIERTVAAPSVFIFPPSDEQLKSGTASVVCLLNNFYPREAKVQWKVDNALQSGNSQESVTEQDSKDSTYSLSSTLTLSKADYEKHKVYACEVTHQGLSSPVTKSFNRGEC
notes: Substitution in both H chains; position in EU numbering; also called K334Y homodimerized antibody
As to B6, the Ho/Con_2b in assay [3] is 126 % of control.

B7: GpH7-B3 variant L328_06M/GpL16-k0 (Ho Ab) (antibody, human IgG1, kappa)
heavy: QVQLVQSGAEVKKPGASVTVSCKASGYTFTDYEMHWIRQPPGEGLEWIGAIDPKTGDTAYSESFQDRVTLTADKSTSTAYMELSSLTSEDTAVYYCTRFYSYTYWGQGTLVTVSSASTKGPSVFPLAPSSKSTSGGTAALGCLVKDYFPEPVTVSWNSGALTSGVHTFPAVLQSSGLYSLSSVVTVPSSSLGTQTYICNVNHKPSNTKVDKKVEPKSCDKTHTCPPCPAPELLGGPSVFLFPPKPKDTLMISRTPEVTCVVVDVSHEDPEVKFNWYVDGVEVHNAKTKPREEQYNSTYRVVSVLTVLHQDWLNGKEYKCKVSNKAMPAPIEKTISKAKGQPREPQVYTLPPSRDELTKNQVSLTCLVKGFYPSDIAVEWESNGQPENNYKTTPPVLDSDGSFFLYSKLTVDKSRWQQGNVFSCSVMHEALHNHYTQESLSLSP
light: DIVMTQSPLSLPVTPGEPASISCQASESLVHSNRNTYLHWYLQKPGQSPQLLIYKVSNRFSGVPDRFSGSGSGTDFTLKISRVEAEDVGVYYCSQNTHVPPTFGQGTKVEIERTVAAPSVFIFPPSDEQLKSGTASVVCLLNNFYPREAKVQWKVDNALQSGNSQESVTEQDSKDSTYSLSSTLTLSKADYEKHKVYACEVTHQGLSSPVTKSFNRGEC
notes: Substitution in both H chains; position in EU numbering; also called L328M homodimerized antibody
For the molecule B7, the Ho/Con_2b in assay [3] was 171 % of control.

B8: GpH7-B3 variant L328_04F/GpL16-k0 (Ho Ab) (antibody, human IgG1, kappa)
heavy: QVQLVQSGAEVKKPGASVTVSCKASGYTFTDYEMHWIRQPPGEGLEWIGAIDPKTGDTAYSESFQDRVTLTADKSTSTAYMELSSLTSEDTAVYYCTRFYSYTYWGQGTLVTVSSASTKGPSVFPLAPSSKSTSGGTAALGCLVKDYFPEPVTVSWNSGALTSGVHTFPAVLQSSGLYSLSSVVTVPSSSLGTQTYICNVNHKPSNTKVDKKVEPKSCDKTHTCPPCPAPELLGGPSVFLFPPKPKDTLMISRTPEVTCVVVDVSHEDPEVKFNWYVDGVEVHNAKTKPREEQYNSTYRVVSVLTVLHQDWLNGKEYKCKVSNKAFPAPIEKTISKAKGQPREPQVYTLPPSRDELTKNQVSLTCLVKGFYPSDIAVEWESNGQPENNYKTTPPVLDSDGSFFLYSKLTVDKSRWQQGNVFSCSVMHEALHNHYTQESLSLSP
light: DIVMTQSPLSLPVTPGEPASISCQASESLVHSNRNTYLHWYLQKPGQSPQLLIYKVSNRFSGVPDRFSGSGSGTDFTLKISRVEAEDVGVYYCSQNTHVPPTFGQGTKVEIERTVAAPSVFIFPPSDEQLKSGTASVVCLLNNFYPREAKVQWKVDNALQSGNSQESVTEQDSKDSTYSLSSTLTLSKADYEKHKVYACEVTHQGLSSPVTKSFNRGEC
notes: Substitution in both H chains; position in EU numbering; also called L328F homodimerized antibody
As to B8, the Ho/Con_2b in assay [3] is 241 % of control.
